Assay results published in patent US20220195063A1 (BYONDIS B V, published 2022).

T1: cynomolgus SIRPα expressed on cells (cynomolgus monkey, UniProt A0A2K5VYQ9 31-507)
T1 construct: whole, on cells; also called ExpiCHO-S (cySIRPα)
T1 sequence: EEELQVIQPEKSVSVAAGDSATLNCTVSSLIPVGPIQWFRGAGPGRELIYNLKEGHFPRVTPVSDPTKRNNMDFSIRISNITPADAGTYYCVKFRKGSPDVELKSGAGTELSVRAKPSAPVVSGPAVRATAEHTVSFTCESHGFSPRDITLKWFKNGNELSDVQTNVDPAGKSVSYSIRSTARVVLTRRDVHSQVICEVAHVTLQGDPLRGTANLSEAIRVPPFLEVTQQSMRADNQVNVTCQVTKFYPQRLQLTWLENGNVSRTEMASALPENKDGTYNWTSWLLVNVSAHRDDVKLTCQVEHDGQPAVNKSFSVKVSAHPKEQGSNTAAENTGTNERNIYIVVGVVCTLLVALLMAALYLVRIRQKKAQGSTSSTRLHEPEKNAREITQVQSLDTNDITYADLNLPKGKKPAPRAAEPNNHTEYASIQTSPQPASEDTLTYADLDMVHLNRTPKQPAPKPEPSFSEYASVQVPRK


What was measured:
human SIRPγ (huSIRPγ) = target: T2, human SIRPγ (huSIRPγ) (human, UniProt Q9P1W8 29-360, limits assumed, biotinylated in the SPR assay); assay: SPR, biotinylated antigen captured, 25 C
T2 construct: Coated on the plate in ELISA, biotinylated and captured in SPR
T2 sequence (Q9P1W8 29-360 limits assumed): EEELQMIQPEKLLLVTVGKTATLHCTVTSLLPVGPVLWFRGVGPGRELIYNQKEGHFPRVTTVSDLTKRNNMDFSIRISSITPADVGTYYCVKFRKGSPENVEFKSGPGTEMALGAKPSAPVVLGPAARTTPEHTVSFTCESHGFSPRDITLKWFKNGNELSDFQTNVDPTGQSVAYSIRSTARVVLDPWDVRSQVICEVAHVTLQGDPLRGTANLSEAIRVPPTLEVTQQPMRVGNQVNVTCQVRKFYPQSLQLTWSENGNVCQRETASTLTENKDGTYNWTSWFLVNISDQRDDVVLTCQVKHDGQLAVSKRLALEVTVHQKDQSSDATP
Experimental: (§1) Surface Plasmon Resonance (SPR) assay: Affinity analysis was performed by single cycle kinetics analysis on a Surface Plasmon Resonance apparatus (Biacore T200 system, GE Life Sciences) at 25° C. Biotinylated SIRP antigens were captured on the surface of a chip suitable for biotinylated molecules (Sensor Chip CAP, GE Life Sciences) by injecting 5 μg/ml of the SIRP antigen in running buffer (10 mM HEPES buffer at pH 7.4 with 150 mM NaCl, 3 mM EDTA and 0.005% v/v polyoxyethylene (20) sorbitan monolaurate (Surfactant P20) for 60 sec at 10 μL/min after injection of a streptavidin conjugate (20× diluted biotin CAPture reagent, GE Life Sciences) for 60 sec at 10 μl/min. Baseline stabilization was set at 1 min after which five increasing concentrations of an anti-SIRP antibody in running buffer (10 mM HEPES buffer at pH 7.4 with 150 mM NaCl, 3 mM EDTA and 0.005% v/v polyoxyethylene (20) sorbitan monolaurate) were injected. For each step an association time of 150 sec was used, followed by a dissociation time of 1200 sec at the highest concentration only, all at a flow rate of 30 μL/min. Regeneration was performed with 6 M guanidine-HCl, 0.25 M NaOH solution (60 sec with flow rate of 30 μL/min). Double blank subtraction was performed on the observed sensorgrams using a non anti-SIRP (blank) immobilized reference flow channel and running buffer injection. Sensorgrams were fitted with a 1:1 Langmuir model for all tested anti-SIRP antibodies. The kinetic parameters (kₐ, kd and KD) were calculated using the Biacore T200 evaluation software (v3.1).

[1] = target: T3, human SIRPα1 (huSIRPα1), protein antigen (human, UniProt P78324 31-370, limits assumed, biotinylated in the SPR assay); assay: SPR, biotinylated antigen captured, 25 C
T3 construct: Coated on the plate in ELISA, biotinylated and captured in SPR; also called v2
T3 sequence (P78324 other isoform, or with tags, fused parts or gaps limits assumed): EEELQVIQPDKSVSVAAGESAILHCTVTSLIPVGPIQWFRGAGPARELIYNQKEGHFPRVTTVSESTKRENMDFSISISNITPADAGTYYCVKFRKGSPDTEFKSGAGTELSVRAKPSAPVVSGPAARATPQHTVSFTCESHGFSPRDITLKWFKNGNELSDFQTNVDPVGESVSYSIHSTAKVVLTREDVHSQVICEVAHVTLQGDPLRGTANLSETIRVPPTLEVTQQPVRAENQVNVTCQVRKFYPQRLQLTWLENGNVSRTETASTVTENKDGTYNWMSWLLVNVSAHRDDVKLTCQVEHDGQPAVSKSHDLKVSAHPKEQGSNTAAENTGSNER
Experimental: as §1

[2] = target: human SIRPαBIT (huSIRPαBIT), protein antigen (human) (UniProt P78324); assay: SPR, biotinylated antigen captured, 25 C
Sequence of human SIRPαBIT (huSIRPαBIT), protein antigen (human) (P78324 31-370): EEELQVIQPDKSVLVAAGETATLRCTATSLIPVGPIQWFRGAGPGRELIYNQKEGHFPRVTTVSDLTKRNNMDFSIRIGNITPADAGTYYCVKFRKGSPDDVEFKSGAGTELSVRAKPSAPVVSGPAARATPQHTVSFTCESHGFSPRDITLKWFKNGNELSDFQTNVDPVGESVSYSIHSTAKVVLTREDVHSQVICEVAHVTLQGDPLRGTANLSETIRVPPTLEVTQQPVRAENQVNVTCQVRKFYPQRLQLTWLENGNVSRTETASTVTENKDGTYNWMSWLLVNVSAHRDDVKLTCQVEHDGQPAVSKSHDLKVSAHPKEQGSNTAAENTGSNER

[3] = target: human SIRPαBIT expressed on cells (human) (UniProt P78324); assay: flow cytometry, U937 cells
Sequence of human SIRPαBIT expressed on cells (human) (P78324 31-504): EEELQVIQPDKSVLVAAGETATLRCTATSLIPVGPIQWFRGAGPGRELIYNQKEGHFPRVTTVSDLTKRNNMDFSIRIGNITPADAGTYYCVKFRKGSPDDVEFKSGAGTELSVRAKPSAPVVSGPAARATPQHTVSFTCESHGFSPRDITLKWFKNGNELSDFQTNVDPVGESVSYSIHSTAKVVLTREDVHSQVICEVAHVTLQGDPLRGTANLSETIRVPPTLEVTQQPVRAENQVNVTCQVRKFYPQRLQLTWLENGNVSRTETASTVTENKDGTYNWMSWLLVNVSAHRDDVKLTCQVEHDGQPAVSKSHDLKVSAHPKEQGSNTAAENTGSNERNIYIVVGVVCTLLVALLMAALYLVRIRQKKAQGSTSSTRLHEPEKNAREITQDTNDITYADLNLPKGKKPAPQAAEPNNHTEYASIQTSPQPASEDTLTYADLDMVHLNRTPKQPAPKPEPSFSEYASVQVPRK

[4] = target: human SIRPαBIT expressed on cells (human) (UniProt P78324); assay: flow cytometry, ExpiCHO-S cells
[5] = target: T4, human SIRPα1 expressed on cells (human, UniProt P78324 31-504); assay: flow cytometry, ExpiCHO-S cells
T4 construct: whole, on cells; also called ExpiCHO-S (huSIRPα1); CHO cells expressing huSIRPα1
T4 sequence (P78324 other isoform, or with tags, fused parts or gaps limits assumed): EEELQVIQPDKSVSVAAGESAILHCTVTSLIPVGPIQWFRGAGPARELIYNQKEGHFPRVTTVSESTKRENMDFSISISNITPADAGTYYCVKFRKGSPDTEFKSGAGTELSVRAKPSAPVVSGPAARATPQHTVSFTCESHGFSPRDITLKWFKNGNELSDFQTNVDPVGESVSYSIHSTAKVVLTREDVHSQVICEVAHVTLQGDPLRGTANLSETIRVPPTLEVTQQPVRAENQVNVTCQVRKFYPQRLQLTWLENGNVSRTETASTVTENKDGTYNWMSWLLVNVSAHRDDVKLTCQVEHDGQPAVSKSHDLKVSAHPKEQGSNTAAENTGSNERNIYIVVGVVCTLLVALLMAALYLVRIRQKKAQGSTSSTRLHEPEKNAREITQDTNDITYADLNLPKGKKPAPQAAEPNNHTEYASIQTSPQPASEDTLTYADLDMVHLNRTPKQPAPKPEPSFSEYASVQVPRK
Excerpt: (§2) Flow Cytometry: U937 cells endogenously expressing human SIRPαBIT antigen and cells derived from a non-engineered subclone that has been screened and isolated from CHO-S Chinese hamster ovary cells (ExpiCHO-S) cells expressing human SIRPα₁, SIRPαBIT or cySIRPα antigen (100,000 cells/well in a 96-well plate) were washed three times with ice-cold FACS buffer (1×PBS (LONZA) containing 0.2% v/w BSA (Sigma-Aldrich, St. Louis, Mo.) and 0.02% v/w NaN₃ (Sigma-Aldrich), followed by the addition of a concentration range of each primary mAb (50 μL/well) diluted in ice-cold FACS buffer. After an incubation time of 30 min at 4° C., the cells were washed three times with ice-cold FACS buffer and 50 μL/well secondary mAb (AffiniPure F(ab′)₂ fragment Goat-anti-human IgG-APC, 1:6,000 dilution, Jackson Immuno Research) was added. After 30 min at 4° C., cells were washed twice and resuspended in 150 μL FACS buffer. Fluorescence intensities were determined by flow cytometry (BD FACSVerse, Franklin Lakes, N.J.) and indicated as the median fluorescence intensity (MFI-Median) for U937 cells and ExpiCHO-S cells. Curves were fitted by nonlinear regression using the sigmoidal dose-response equation with variable slope (four parameters) in GraphPad Prism (version 7.02 for Windows, GraphPad, San Diego, Calif.). EC₅₀ values were calculated as the concentration in μg/mL that gives a response half way between bottom and top of the curve, when using a 4-parameter logistic fit.

[6] = target: T1, cynomolgus SIRPα expressed on cells; assay: flow cytometry, ExpiCHO-S cells
Excerpt: as §2

binding result (human SIRPγ (huSIRPγ)) | Kd [1] [nM] | Kd [2] [nM] | EC50 [3] [µg/mL] | EC50 [4] [µg/mL] | EC50 [5] [µg/mL] | EC50 [6] [µg/mL] | Binder
no binding | 3.2 | < 0.01 | 0.17 | 0.2 | 0.38 | 0.27 | anti-SIRPα antibody 10 humanized (antibody, human IgG1, kappa, L234A L235A, V domains shown, Humanized, human IgG1 LALA / kappa) VH: KVEESGGGLVQPGGSLRLSCAASGFSLSSYVMGWVRQAPGKGLEWVSIISSSGSPYYASWVNGRFTISKDNSEGMVYLQMNSLRAEDTAVYYCARVGPLGVDYFNIWGQGTTVTVSS VL: DIVMTQSPDSLAVSLGERATINCQAGQSINSYLAWYQQKPGQPPKLLIYYASTLESGVPDRFSGSGSGTDFTLTISSLQAEDVAVYYCQSWHYISRSYAFGGGTKLEIKR
no binding | 0.059 | < 0.01 | 0.2 | 0.46 | 0.1 | 0.17 | anti-SIRPα antibody 12 humanized (antibody, human IgG1, kappa, L234A L235A, V domains shown, Humanized, human IgG1 LALA / kappa) VH: VQLVESGGRLVQPGTPLTLSCTVSGFSLSSYVMGWFRQAPGKGLEYIGIISSSGSPYYASWVNGRFTISKTSTTMDLKMNSLRSEDTATYFCARVGPLGVDYFNIWGPGTLVTVSS VL: DIVMTQTPSSVEAAVGGTVTIKCQAGQSINSYLAWYQQKPGQRPKLLIYYASTLESGVPSRFKGSGSGTDYTLTISDLESADAATYYCQSWHYISRSYAFGGGTEVVVKR
no binding | 41 | 0.14 | 0.13 | 0.3 | 1.05 | 0.32 | anti-SIRPα antibody 11 humanized (antibody, human IgG1, kappa, L234A L235A, V domains shown, Humanized, human IgG1 LALA / kappa) VH: EVKVEESGGGLVQPGGSLRLSCAASGFSLSSYVMGWVRQAPGKGLEWVSIISSSGSPYYASWVNGRFTISKTSTTMDLQMNSLRAEDTAVYYCARVGPLGVDYFNIWGQGTTVTVSS VL: DIQMTQSPSSLSASVGDRVTITCQAGQSINSYLAWYQQKPGKVPKLLIYYASTLESGVPSRFSGSGSGTDFTLTISSLQPEDVATYYCQSWHYISRSYAFGQGTKVEIKR
no binding | < 0.01 | 0.012 | 0.14 | 0.23 | 0.36 | 0.44 | anti-SIRPα antibody 13 humanized (antibody, human IgG1, V domains shown, Humanized, human IgG1 LALA / kappa) VH: RQLVESGGGLVQPGGSLRLSCTASGFSLSSHGISWVRQAPGKGLEYIGTIGTGVITYFASWAKGRFTGSKTSSTAYMELSSLRSEDTAVYFCARGSAWNDPFDPWGQGTLVTVSS VL: AIQMTQSPSSLSASVGDRVTITCQASQSVYGNNDLAWYQQKPGKAPKLLIYLASTLATGVPSRFSGSGSGTDFTLTISSLQPEDFATYYCLGGGDDEADNVFGGGTKVEIKR
no binding | < 0.01 | 0.089 | 0.22 | 0.29 | 0.37 | 0.38 | anti-SIRPα antibody 14 humanized (antibody, human IgG1, V domains shown, Humanized, human IgG1 LALA / kappa) VH: RQLVESGGGLVQPGGSLRLSCTASGFSLSSHGISWVRQAPGKGLEYIGTIGTGVITYFASWAKGRFTGSKTSSTAYMELSSLRSEDTAVYFCARGSAWNDPFDPWGQGTLVTVSS VL: DIEMTQSPSSVSASVGDRVTLTCQASQSVYGNNDLAWYQQKPGQAPKLLIYLASTLATGVPSRFSGSGSGTDFTLTISSLQPEDFATYYCLGGGDDEADNVFGGGTKVEIKR
